Results on 30 sequences are retold here after the nanobody polyreactivity screen of Harvey et al. (2022).

The data set is described as follows: yeast display, Sf9 membrane polyspecificity reagent, FACS + sequencing; frameworks hold sequencing errors. The procedure, abridged:
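After 36–48 hours of galactose induction, yeast (Saccharomyces cerevisiae BJ5465) displaying a synthetic nanobody library were stained at 4 °C for 1 hour with 10% biotinylated, detergent-solubilized Sf9 membrane reagent. Streptavidin microbeads enriched the stained cells before FACS sorting into low and high (top ~1%) gates on anti-HA and streptavidin fluorescence. Each clone's polyreactivity label reflects its gate of origin.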
“QVQLVESGGGLVQGGGSLRLSCDASGCNFRKNAMGWYRQAPGKERDLVAAISWDGDNTYADSVKGRFTISRDNAMNNVYLQLYSLKPVYTAVSYCAAETFTYYDYWGQGTQVNVSS”: the “polyreactivity (PSR sort gate)” value is reported as “high polyreactivity”.
Under “QVQLVESGGGLVQGGGSLRLTCAASGSIFHYYAMGWYRQAPGKERELVAAINSSGGSRTYYADSVKGRFTISRDNAKNTVYLQMNSLKPEDTAVYYCAADYRVVWRAYDYWGQGTQVTVSS” stands “low polyreactivity”; under “QVQLVESGGGLVQGGGSLSLRCAASGSTFDYNAMGWYRQAPGKERDLVAVISGGSSTNYADSVKGRFTISRDNEKNTVYLQMNSLNPEDTAVYYCNARDYFVARAVSFVTYWLGVYWGQGTQVSVSS”, “low polyreactivity”; under “QVQLVESGGGLVQPGGSLRLSCAASGGIFRSYAMGSYRQAPGKERELVAVITKSGGDTYYADSVKGRFTISRDNAKNTVYLQMNRVKPVDTAVYYCAAVYGYYTYWIPGFTWAVDYWGQGTQVTVSS”, “low polyreactivity”.
Under “QVQLVESGGGLVQPGGSLRLSCAASGRIFKRNAMGCYRQAPGKERELVAAITWRGGSTYYADSVKGRFTISRDNAKNTVYLQMKSMKPEDTAVYYCNVGYGGSSDGGYDYWGHGTQVTVSS” stands “high polyreactivity”; under “QVQLVESGGGLVQPGGSLRLSCAASGRTFGSYVMGWYRQAPWKQRELVATISRRGGTTYYADSVKGRVTISRDNAKNSVYLELLSLKPVDTAVYYCADKYFGTRYDYWGQGTQVTVSS”, “high polyreactivity”.
To “QVQLVESGGGLVQPGGSLRLSCAASGRTSEIYTMGWYRPAPGKERELVASINTNSADSVKGRFTISRDNAKNTVYLQMNSLKPEDTAVYYCNADDTIEFNYWGQGTQVTVSS” belongs “low polyreactivity”.
With “QVQLVESGGGLVQPGGSLRLSCAASGSIASYAMGWYRQAPGKERELVAGISWSGGSTYYADSVKGRFTISRDNAKNTVYLQMNSLKPEDTAVYYCNAYSAFVPPTRGYYWGQGTQVTVSS”, the “polyreactivity (PSR sort gate)” value is given as “high polyreactivity”.
To “QVQLVESGGGLVQPGGSLRLSCAASGSIFIGYAMGWYRQAPGKERELVASIRNGGSTNYADSVKGRFTISRDNAKNTVYLQMNSLKPEDTAVYYCAGRYPVFLVSFGFDYWGQGTQVTVSS” belongs “low polyreactivity”; to “QVQLVESGGGLVQPGGSLRLSCAASGSTLRRNAMGWYRQATRIERELVSAITGSRGSTYYADSVKGRFTISLDNAKNTVYLQMNCLKPEDTAVYYCAALYYYHLLPSRYYRFVYWGQGTQVTVSS”, “high polyreactivity”.
For “QVQLVESGGGLVQPGGSLRLSCAASRSIFKVYAMGWYRQEPGKEREFVAAITSSDSNTNYADSVKGRFTISRDNAKNTVYLQMHSLKPEDTAVYYCNARIYNRRYVPHYGFNYWGQGTQVTVSS”, the “polyreactivity (PSR sort gate)” value is listed as “low polyreactivity”.
To “QVQLVESGGGLVQPGGSLRLTCAASGGIFVTYTMGWYRQAPGKDRELVAGINSRSGSTYADSVKGGFTISRDNAKNTVYLQRTSLKLEDTAVYYCAADRIDLGRASRYGYWGQGTQVTVSS” belongs “low polyreactivity”; to “QVQLVESGGGLVQSGASLRLSCAASGLIIGLYALGWYRQAPGKERELVAAISDNGARTYYADSVKGRFTISRDNAKNTVYLQMNSLKPEDTAVYYCARDQSYHYNYWGQGTQVTVSS”, “low polyreactivity”.
Under “QVQLVESGGGLVQSGGILRLSCAASGSTSPIYAMGWYRQAPGTERELVAAINGVGSTNYADSVKGRFTISRDNAKTTVYFQMNSLKPADTAVYYCAADGTALHEYLGDYDYWGQGTQVTVSS” stands “low polyreactivity”; under “QVQLVESGGGLVQSGGSIRLSCAASGSTFLWYCMGWYRQAPGKERELVASISRGGGTDYADSVKGRFTISRDNAKNTVYLQMNSLKPEDTAVYYCAATGVNRYDHWGQGTHVTVSS”, “low polyreactivity”; under “QVQLVESGGGLVQSGGSLRLICAASGRNYAMGWYRQAPGKERELVARITKSGTSTYYADSVKGRFTISRDNAKNTVYLQMNSLKPEDTAVYYCNARYWGYWGDHYDYWGQGTQVTVSS”, “high polyreactivity”.
Under “QVQLVESGGGLVQSGGSLRLSCAASGGIFRYYVMGWYRQAPGKERELVAPINSGGTTYYEDSVKGRFTISRDNAKNTVYLQMNSLKPEDTAVYFCAAYYAGFGYNYWGQGTQVTVSS” stands “low polyreactivity”.
On to “QVQLVESGGGLVQSGGSLRLSCAASGIIFNDYAMGWYRQAPGKERELVAAISGRGGRTYYADSVKGRFTISRDNAKITVYLQMNSLKPEDTAVYYCAARVLPTDYYWGQGTQVTVSS”, for which the “polyreactivity (PSR sort gate)” value is listed as “high polyreactivity”.
Under “QVQLVESGGGLVQSGGSLRLSCAASGIIFQYYAMGWYRQAPGKEMELVAAITSSGGSTFYADSVKGSFTISRDNAKNTVYLQMNSLKPEDTAVYYCAAVYHRSTYDYWGQGTQVNVSS” stands “high polyreactivity”; under “QVQLVESGGGLVQSGGSLRLSCAASGLIFPYYAMGWYRQAPGKERELVAAITGNGGRTYYADSVKGRFTISRDNAKYNVYLQMNSLKPEDTAVYYCAAAGKASSDYYVLGGYWGQGTQVTVSS”, “high polyreactivity”.
In the case of “QVQLVESGGGLVQSGGSLRLSCAASGLTFLNNALGWYRQAPGKERELVAAISDGGSPNYADSVKGRFTISRDNAKNTVFLQMNSLKPEDTAVYYCAAVYTSASYGSWGQGTQVTVSS”, the “polyreactivity (PSR sort gate)” value is “low polyreactivity”.
To “QVQLVESGGGLVQSGGSLRLSCAASGRTFFENAMGWYRPAPGKEREFVAAISYNGGSTYYADSVKGRFTISRDNAKNTVYLQMNSLKPEDTAVYYCAADPNYGYDYWGQGTQVTVSS” belongs “low polyreactivity”.
To “QVQLVESGGGLVQSGGSLRLSCAASGSIFWYNARGWYRQAPGKERELVAAINGGGRTYYADSVKGPFTISRDNAKNTVYLQMNSLKPEDTAVYYCAVDPISQGHMDYGGQGTQVTVSS” belongs “low polyreactivity”; to “QVQLVESGGGLVQSGGSLRLSCAASGYIFFFNAMGWYRQAPGKERELVAAITRRGVSTYYADSVKGRCTISRDNAKNTVFLQMNSLKPEDTAVYYCATEHNHLGYYYWGQGTQVTVSS”, “low polyreactivity”.
To “QVQLVESGGGLVQSGGSLRLSCAASGYTFLEYTMGWYRQAPGKERELVAAITSGGSTKYADSVKGRFTISRDNAKNTVYLQMNSLKPEDTAVYYCNARHYSREFDYWGQGTQVTVSS” belongs “low polyreactivity”; to “QVQLVESGGGLVQSGGSLRLSCAAYGLILTHYSMGRYRQAPGKESELVAAIDYGGGSNTYYADSVKGLFTISRDNAKNTDYLQMNSLKPEDTAVYYCAAYRAGNSYDPRLNYWGQGTQVTVSS”, “high polyreactivity”.
With “QVQLVESGGGLVQSGGSLRLSCAGSGSTLYYYVMGWYRQAPGKERELVAAISSSGDSTYYADSVKGRFTISRDNAKNTVSLQMNSLKPEDTAVYYCNAGWYFYGESTDDYWGQGTQVTVSS”, the “polyreactivity (PSR sort gate)” value is “low polyreactivity”.
To “QVQLVESGGGLVQSGGSLRLSWAASGSIFVTYAMRCYRPAPGKERELVAAINSGGRTNYADSVKGRFTISRDNAMNTVFLNMNSMKPEDTAVYYCAATGRYFDPYYRYDYWGQGTQVTVSS” belongs “low polyreactivity”; to “QVQLVESGGGLVQSGGSLRLTCAASGIIFPRYAMGWYRQAPGKERELVAAITRRGGRTYYADSVKGRFTISRDNAKNTVYLQMNSLKPEDTAVYYCNADFISTRPPKATDEDYWGQGTQVTVSS”, “high polyreactivity”; to “QVQLVESGGGLVQVGCSLRLSCAASGFTFYNNVMGWYRQAPGKERELVAAITSTGSTSYADSVKGRFTISRDNAKNTVYLQMNSLKPEDTAVVYCARAYYYLLGGHYRHKYYWGQGTQVTVSS”, “high polyreactivity”.
